Experimental findings from patent publication CN116018351A (SHANGHAI YOUTI JISHENG BIOMEDICAL CO LTD, dated 2023) are described below.

In this experiment the target is T1, CD123-Fc重组蛋白 (human, UniProt P26951 19-305).
T1 construct: also called CD123-Fc蛋白; 人CD123-Fc; not shown: Fc part
T1 sequence: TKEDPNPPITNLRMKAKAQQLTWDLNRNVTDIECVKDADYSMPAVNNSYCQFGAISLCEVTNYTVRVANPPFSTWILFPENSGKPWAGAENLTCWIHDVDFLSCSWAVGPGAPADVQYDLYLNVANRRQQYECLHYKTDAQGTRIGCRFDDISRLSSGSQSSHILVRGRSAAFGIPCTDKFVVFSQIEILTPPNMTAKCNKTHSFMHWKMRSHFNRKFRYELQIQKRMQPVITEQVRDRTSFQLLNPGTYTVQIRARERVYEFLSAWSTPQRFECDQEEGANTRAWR
In words: FACS staining of CAR T cells with CD123-Fc recombinant protein.

Positions count from the first letter of the chain named.

B1: 抗CD123 scFv-C17 (in a CAR on T cells) (scFv)
scFv: QSALTQPASVSGSLGQSITISCTGTSSDVGTYDYVSWYQQHPGKAPKLMIYDVTYRPSGVSHRFSGSKSGNTASLTISGLQADDEADYYCQQYNNWPPRYTFGQGTKVEIKGGGGSGGGGSGGGGSQVQLVQSGAEVEKPGASVKLSCTASGYNFNSYYMHWVRLTPGQGLEWMGLINPTNGRTTYAQKFQGRVTMTGDTSTRTVYLALSSLRSEDSALYYCARGSPPHIFDPDFDYWGQGTLVTVSS
notes: Human scFv from phage display; not shown: rest of the CAR, hinge domain to CD3-zeta domain
For B1, the binding result is given as “binds”.

B2: 抗CD123 scFv-C16 (in a CAR on T cells) (scFv)
scFv: QSVVTQPPSASGTPGQRVTISCSGSSSNIEGNTVSWYQQFPGAAPKLLIYSNSYRASGVPDRFSGSKSGTSASLAISELQSEDEADYYCSAWDDSLNGPVFGGGTELTVLGGGGSGGGGSGGGGSQVQLQESGGGLVQPGGSLRLSCAASGFTFSSYSMNWVRQAPGKGLEWVSYISSSSSTIYYADSVKGRFTISRDNAKNSLYLQMNSLRAEDTAVYYCARDIYGDWDYYYYGMDVWGQGTTVTVSS
notes: as for B1
In the case of B2, the binding result is “binds”.

B3: 抗CD123 scFv-C4 (in a CAR on T cells) (scFv)
scFv: QSALTQPPSASGTPGQRVTISCSGSSSNIGSNYVNWYQQLPGTAPKLLIYRNNQRPSGVPDRFSGSKSGTSASLAISGLRSEDEADYYCAAWDDSLSGHGVFGTGTELTVLGGGGSGGGGSGGGGSQVQLVQSGPEVKKPGASVKVSCKASGYDFIRYYMNWVRQAPGQGPEWMGAIDPSDGDTTYGQKFQGRVTLTRDTFTSTVYMELSSLRSEDTAVYYCARDWELTNSYGLDVWGQGTTVTVSS
notes: as for B1
Regarding B3, the binding result is recorded as “binds”.

B4: 抗CD123 scFv-C5 (in a CAR on T cells) (scFv)
scFv: NFMLTQPHSVSESPGKTVTLSCTRSSGSIAGSYVQWYQQRPGSSPTTVIFQDNQRPSGVPDRFSGSIDKSSNSASLTISGLKTEDEADYYCQSYDSNNQVFGGGTKLTVLGGGGSGGGGSGGGGSEVHLVESGGGVVRPGGSLRLSCAASGFTFGDYGMSWVRQAPGKGLEWVSGINWNGGRTGYADSVKGRFTISRDNAKNSLYLQMNSLRAEDTALYYCARARGSGSYFGYMDVWGKGTTVTVSS
notes: Human scFv from phage display; also called 抗-CD123-C5; not shown: rest of the CAR, hinge domain to CD3-zeta domain
As to B4, the binding result is “binds”.

B5: 抗CD123 scFv-C9 (in a CAR on T cells) (scFv)
scFv: QSVLTQPPSASGTPGQRVTISCSGSNSNIENNYVYWYQHLPGTAPKRLIYQNNQRPSGVPDRFSGSKSGTSASLAISGLRSEDEADYYCSAWDDSLSAWVFGGGTELTVLGGGGSGGGGSGGGGSEVHLVESGGGLVQPGRSLRLSCTASGFTFGDYAMNWVRQAPGKGLEWVGFIRSKASGGTTDYAASVKGRFTISRDDSKSIAYLQMNSLKTEDTAVYYCTRALRGYSYGLFDYWGQGTLVTVSS
notes: as for B1
Turning to B5, the binding result was “binds”.

B6: 抗CD123 scFv-C6 (in a CAR on T cells) (scFv)
scFv: SYELTQPPSVSVSPGQTARIPCSGADLGDQYVSWYQHQPGQSPLLVIYEDDKRPSGIPERFSGSNSGNTATLTISGTQAMDEADYYCQAWDGNAAIFGGGTKLTVLGGGGSGGGGSGGGGSQVQLVQSGGGSVQPGGSLRLSCAASGFTFTRYSMNWVRQAPGKGLEWVSYISSSSSTIYYADSVKGRFTISRDNAKNSLYLQMNSLRDEDTAVYYCARDGYGGNSDYYGMDVWGQGTTVTVSS
notes: as for B1
Regarding B6, the binding result is recorded as “binds”.

B7: 抗CD123 scFv-C26 (in a CAR on T cells) (scFv)
scFv: QSVLTQPPSASGTPGQRVTISCSGSRSNIGSNTVSWYQQFPGTAPKLLIYLNNQRPSGVPDRFSGSKSGTSASLAISGLQSEDEAEYYCATWDDDLNGVFGGGTKLTVLGGGGSGGGGSGGGGSEVQLVESGGGLVQPGGSLRLSCAASGFTLSNFEMNWVRQAPGRGLEWVSYISATTSATSYADSVKGRFTISRDNAKNSLYLQMNSLRAEDTAVYYCARVRDGYNFGYYYYYMDVWGKGTTVTVSS
notes: as for B1
B7: the binding result is “binds”.

B8: 抗CD123 scFv-C14 (in a CAR on T cells) (scFv)
scFv: DIRMTQSPSSLSASVGDRVTITCQASQDITNYLNWYHQKPGKAPKLLIYDASNLETGVPSRFSGGGSGTDFTFTISSLQSEDIGTYYCQQYDDLPLTFGGGTKVEIKGGGGSGGGGSGGGGSQVQLQESGPGLVKPSETLSLTCTVSGGSISSSSHYWGWIRQPPGKGLEWIGSIYYSGSTYYNPSLKSRVTISVDTSKNQFSLKLSSVTAADTAVYYCARRVWVWPTYGMDVWGQGTTVTVSS
notes: as for B1
For the molecule B8, the binding result is recorded as “binds”.

B9: 抗CD123 scFv-C30 (in a CAR on T cells) (scFv)
scFv: AIRLTQSPSSLSASVGDRVTITCQASQNINNYLNWYQQKSGKAPKLLIYDASNLEAGVPSRFSGSASGTDFTFTISSLQPEDIATYYCQQNDNLPLTFGQGTRLEIKGGGGSGGGGSGGGGSEVQLVESGGGVVRPGGSLRLSCAASGFTFGDYGMSWVRQAPGKGLEWVSGINWNGGSTGYADSVKGRFTISRDNAKNSLYLQMNSLRAEDTALYYCARDRAPDYGDYLQVGTTDYWGQGTLVTVSS
notes: as for B1
Consider B9, for which the binding result is on record as “binds”.

B10: 抗CD123 scFv-C11 (in a CAR on T cells) (scFv)
scFv: QSVVTQPPSASGTPGQRVTISCSGSSSNIGSNYVYWYQQLPGTAPKLLIYRNNQRPSGVPDRFSGSKSGTSASLAISGLRSEDEADYYCAAWDDSLSGYVFGTGTKLTVLGGGGSGGGGSGGGGSEVQLVESGGGLVQPGRSLRLSCTASGFTFGDYAMSWVRQAPGKGLEWVGFIRSKAYGGTTEYAASVKGRFTISRDDSKSIAYLQMNSLKTEDTAVYYCTRDIGYYGSGSYSPFDYWGQGTLVTVSS
notes: Human scFv from phage display; also called 抗-CD123-C11; not shown: rest of the CAR, hinge domain to CD3-zeta domain
Take B10: the binding result is recorded as “binds”.

B11: 抗CD123 scFv-C29 (in a CAR on T cells) (scFv)
scFv: B10 scFv with S2P, V4L, L107V, Q128H
notes: as for B1
For the molecule B11, the binding result is reported as “binds”.

B12: 抗CD123 scFv-C18 (in a CAR on T cells) (scFv)
scFv: QSALTQPASVSGSPGQSITISCTGTSSDVGGYNYVSWYQQHPGKAPKLMIYDVSNRPSGVSNRFSGSKSGNTASLTISGLQAEDEADYYCSSYTSSSTLFVFGTGTELTVLGGGGSGGGGSGGGGSQVQLQESGPGLVKPSQTLSLTCTVSGGSISSGDYYWSWIRQSPGKGLEWIGYIHSTGTTYYNPSLKSRLTISLDTSKNQFSLKLNSVTAADTAVYYCARGGVGTIFNYWGQGTLVTVSS
notes: as for B1
B12: the binding result is “binds”.

B13: 抗CD123 scFv-C2 (in a CAR on T cells) (scFv)
scFv: QSVVTQPPSVSAAPGQKVTISCSGSSSNIGNNYVSWYQQFPGTAPKLLIYDNNKRPSGIPDRFSGSKSGTSGTLGITGLQTGDEADYYCVTWDTSLSAGVFGGGTKLTVLGGGGSGGGGSGGGGSQITLKESGGGLVKPGGSLRLSCAASGFTFSNAWMSWVRQAPGKGLEWVGRIKSKTDGGTTDYAAPVKGRFTISRDDSKNTLYLQMNSLKTEDTAVYYCTTDPHGYYYGMDVWGQGTTVTVSS
notes: as for B1
B13: the binding result is “binds”.

B14: 抗CD123 scFv-C15 (in a CAR on T cells) (scFv)
scFv: DIQLTQSPSTLSASVGDRVTISCRASQSISSWLAWYQHKPGKAPKLLIYKTSALEDGVPSRFSGSGSGTEFTLTISSLQPDDFATYFCLHYGSYTFGQGTKVDIKGGGGSGGGGSGGGGSEVQLVESGGGLVNPGGSLRLSCEASGFTFSDYYISWIRQAPGKGLEWISYISGSSTYTDFADSVKGRFTISRDNAKNTVFLQMNSLRAEDTAVYYCARDRRGRFDPWGQGTLVTVSS
notes: as for B1
Regarding B14, the binding result is given as “binds”.
